Source: article doi:10.1101/2023.12.15.571702

Molecular target: piperazate synthase PipS, C-terminal His6-tagged (holo-PipS) (Streptomyces griseus subsp. griseus NRRL F-5144)
Experiment: crystal structure

For “piperazate synthase PipS, C-terminal His6-tagged (holo-PipS) (enzyme)”, the stoichiometry N was 2.
